Experimental data published in paper PMC8134030 (Biochemistry and Biophysics Reports, 2021).

Legend:
Assay in all cases: pull-down
[1] = target: T1, MBP:Ncd^FL (Drosophila, UniProt P20480 1-700)
T1 sequence (looked up): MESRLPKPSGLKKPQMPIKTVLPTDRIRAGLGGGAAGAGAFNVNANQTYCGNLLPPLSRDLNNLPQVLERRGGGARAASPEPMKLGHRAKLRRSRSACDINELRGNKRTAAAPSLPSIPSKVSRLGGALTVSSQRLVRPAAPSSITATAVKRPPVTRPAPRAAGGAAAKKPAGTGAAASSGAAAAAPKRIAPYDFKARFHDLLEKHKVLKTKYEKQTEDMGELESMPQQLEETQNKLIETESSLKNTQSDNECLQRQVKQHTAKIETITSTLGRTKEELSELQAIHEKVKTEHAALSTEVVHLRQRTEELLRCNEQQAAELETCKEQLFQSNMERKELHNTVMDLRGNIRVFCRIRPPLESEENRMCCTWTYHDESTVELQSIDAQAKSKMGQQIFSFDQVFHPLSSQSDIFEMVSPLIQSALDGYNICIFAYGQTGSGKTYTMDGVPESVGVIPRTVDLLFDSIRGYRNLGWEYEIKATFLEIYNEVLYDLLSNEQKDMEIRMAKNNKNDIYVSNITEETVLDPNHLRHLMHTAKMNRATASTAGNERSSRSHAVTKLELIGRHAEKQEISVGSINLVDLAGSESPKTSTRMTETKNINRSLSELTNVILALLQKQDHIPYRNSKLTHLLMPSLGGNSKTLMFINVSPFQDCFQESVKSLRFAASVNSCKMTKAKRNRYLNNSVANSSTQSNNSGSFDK

[2] = target: T2, MBP:Ncd^CTm3A (Drosophila, UniProt P20480 333-700, H619A | R623A | H629A)
T2 sequence (looked up): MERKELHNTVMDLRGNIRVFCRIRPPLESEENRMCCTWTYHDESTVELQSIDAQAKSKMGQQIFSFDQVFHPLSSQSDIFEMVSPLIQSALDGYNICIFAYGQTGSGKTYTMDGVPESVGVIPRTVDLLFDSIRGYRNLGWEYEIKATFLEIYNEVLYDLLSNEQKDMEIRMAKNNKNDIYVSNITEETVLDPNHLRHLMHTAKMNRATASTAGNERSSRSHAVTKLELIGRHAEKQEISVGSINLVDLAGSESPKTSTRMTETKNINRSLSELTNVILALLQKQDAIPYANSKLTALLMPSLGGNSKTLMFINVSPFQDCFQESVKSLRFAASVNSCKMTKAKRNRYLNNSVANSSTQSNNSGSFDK

[3] = target: T3, MBP:Ncd^CTm (Drosophila, UniProt P20480 333-700)
T3 sequence (looked up): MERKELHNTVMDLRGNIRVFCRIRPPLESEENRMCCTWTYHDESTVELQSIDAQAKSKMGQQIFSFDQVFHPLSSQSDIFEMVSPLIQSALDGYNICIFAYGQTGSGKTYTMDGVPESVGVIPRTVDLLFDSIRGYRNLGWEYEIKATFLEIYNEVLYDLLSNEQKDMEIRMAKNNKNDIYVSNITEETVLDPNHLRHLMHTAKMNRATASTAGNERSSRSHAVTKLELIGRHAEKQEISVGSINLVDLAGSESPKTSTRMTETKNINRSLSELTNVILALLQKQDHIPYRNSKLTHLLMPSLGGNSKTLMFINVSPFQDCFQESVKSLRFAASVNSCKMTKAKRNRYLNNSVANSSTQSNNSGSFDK

Binder	binding result [1]	fold reduction in binding affinity against WT [2]	Kd [3]
Ncd^CTm, soluble untagged prey (domain or fragment, Drosophila, UniProt P20480 333-700, looked up) MERKELHNTVMDLRGNIRVFCRIRPPLESEENRMCCTWTYHDESTVELQSIDAQAKSKMGQQIFSFDQVFHPLSSQSDIFEMVSPLIQSALDGYNICIFAYGQTGSGKTYTMDGVPESVGVIPRTVDLLFDSIRGYRNLGWEYEIKATFLEIYNEVLYDLLSNEQKDMEIRMAKNNKNDIYVSNITEETVLDPNHLRHLMHTAKMNRATASTAGNERSSRSHAVTKLELIGRHAEKQEISVGSINLVDLAGSESPKTSTRMTETKNINRSLSELTNVILALLQKQDHIPYRNSKLTHLLMPSLGGNSKTLMFINVSPFQDCFQESVKSLRFAASVNSCKMTKAKRNRYLNNSVANSSTQSNNSGSFDK	binds	–	–
Ncd^nMBD, soluble untagged prey (domain or fragment, Drosophila, UniProt P20480 1-204, looked up) MESRLPKPSGLKKPQMPIKTVLPTDRIRAGLGGGAAGAGAFNVNANQTYCGNLLPPLSRDLNNLPQVLERRGGGARAASPEPMKLGHRAKLRRSRSACDINELRGNKRTAAAPSLPSIPSKVSRLGGALTVSSQRLVRPAAPSSITATAVKRPPVTRPAPRAAGGAAAKKPAGTGAAASSGAAAAAPKRIAPYDFKARFHDLLE	–	~10 fold	~2 µM
